The record followed here is publication PMC10881398, “O-glycosylation of the transcription factor SPATULA promotes style development in Arabidopsis” (Nature Plants, 2024).

One series addresses T1, HEC1–RFP (35S::HEC1–RFP) (Arabidopsis thaliana, UniProt Q9FHA7 1-241).
T1 construct: HECATE 1 (HEC1), bHLH transcription factor, Arabidopsis thaliana; the cloning of this construct is not described; the methods describe the FRET–FLIM constructs of SPT and IND only; also called HECATE 1; source: N. benthamiana leaves, Agrobacterium-infiltrated, in nuclei of leaf cells
T1 sequence (looked up): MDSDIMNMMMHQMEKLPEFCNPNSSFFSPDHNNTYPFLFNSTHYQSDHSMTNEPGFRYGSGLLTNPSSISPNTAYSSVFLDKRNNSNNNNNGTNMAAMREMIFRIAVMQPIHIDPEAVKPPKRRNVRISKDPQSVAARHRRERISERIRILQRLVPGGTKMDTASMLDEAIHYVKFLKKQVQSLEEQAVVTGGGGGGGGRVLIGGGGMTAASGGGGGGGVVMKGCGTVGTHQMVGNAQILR
Briefly: FRET or BRET; FRET–FLIM in nuclei of co-infiltrated N. benthamiana leaves; donor SPT–EGFP, acceptor RFP fusions; efficiency E = 1 − τDA/τD with SPT–EGFP;RFP–NLS as the donor-only reference; with or without co-expressed SEC–3xHA or SPY–3xHA. The conditions noted are these: partners not purified. On the technique in general: In BRET a luciferase serves as donor, and the signal depends on an acceptor being close.

Series [1] deals with the molecule itself. Described as above.
The target in the next series is T2, IND–RFP (35S::IND–RFP) (Arabidopsis thaliana, UniProt O81313 1-198).
T2 construct: INDEHISCENT (IND), bHLH transcription factor, Arabidopsis thaliana; also called INDEHISCENT; source: N. benthamiana leaves, Agrobacterium-infiltrated, in nuclei of leaf cells
T2 sequence (looked up): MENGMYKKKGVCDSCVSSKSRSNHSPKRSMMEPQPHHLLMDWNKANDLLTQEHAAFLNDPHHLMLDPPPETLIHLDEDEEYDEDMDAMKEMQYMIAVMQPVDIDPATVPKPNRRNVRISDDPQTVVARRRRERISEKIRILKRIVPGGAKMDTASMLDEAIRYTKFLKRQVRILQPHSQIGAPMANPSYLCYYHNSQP
Described as above. The conditions noted are these: partners not purified.

The target of another series is T3, 6xHis-SPT (SPATULA) (Arabidopsis thaliana, UniProt Q9FUA4 1-373).
T3 sequence: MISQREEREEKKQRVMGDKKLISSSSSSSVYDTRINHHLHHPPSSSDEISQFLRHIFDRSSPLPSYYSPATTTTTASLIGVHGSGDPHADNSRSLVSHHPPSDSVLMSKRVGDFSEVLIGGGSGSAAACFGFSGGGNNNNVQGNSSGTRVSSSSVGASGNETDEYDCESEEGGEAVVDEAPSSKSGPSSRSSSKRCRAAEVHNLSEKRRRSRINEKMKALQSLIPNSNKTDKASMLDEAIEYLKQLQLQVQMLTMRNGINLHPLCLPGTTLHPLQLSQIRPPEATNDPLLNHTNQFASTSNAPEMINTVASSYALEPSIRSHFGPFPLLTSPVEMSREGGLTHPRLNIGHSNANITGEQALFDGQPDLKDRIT
The experiment in a line: EMSA; legend: binding abolished; text: strongly abolished; EMSA: 150 ng DNA, '1x' buffer as printed 250 mM Tris-HCl pH 8.0, 500 mM NaCl, 25% glycerol, 10 mM DTT; on ice 20 min; 5% native acrylamide gel, 1x TBE, EB stain. To be noted: protein: recombinant; tags: 6xHis N-terminal (pRSFDuet); chain copies: 2; label: none (EB stain); blunt. On the technique in general: In EMSA bound probe runs differently from free probe, usually more slowly.

B1: SPT–GFP (35S::SPT::GFP) (natural protein, Arabidopsis thaliana, UniProt Q9FUA4 1-373, looked up)
chain: MISQREEREEKKQRVMGDKKLISSSSSSSVYDTRINHHLHHPPSSSDEISQFLRHIFDRSSPLPSYYSPATTTTTASLIGVHGSGDPHADNSRSLVSHHPPSDSVLMSKRVGDFSEVLIGGGSGSAAACFGFSGGGNNNNVQGNSSGTRVSSSSVGASGNETDEYDCESEEGGEAVVDEAPSSKSGPSSRSSSKRCRAAEVHNLSEKRRRSRINEKMKALQSLIPNSNKTDKASMLDEAIEYLKQLQLQVQMLTMRNGINLHPLCLPGTTLHPLQLSQIRPPEATNDPLLNHTNQFASTSNAPEMINTVASSYALEPSIRSHFGPFPLLTSPVEMSREGGLTHPRLNIGHSNANITGEQALFDGQPDLKDRIT
notes: SPATULA (SPT), Arabidopsis thaliana; in the self-association row the second copy carried RFP in place of EGFP (35S::SPT–RFP); also called SPT–EGFP; SPT–RFP (the second copy in the homodimer test); source: N. benthamiana leaves, Agrobacterium-infiltrated, in nuclei of leaf cells
As to B1, the FRET efficiency in the series with HEC1–RFP (35S::HEC1–RFP) came to 7.4%; in series [1] it was 5.7%; with IND–RFP (35S::IND–RFP) it was 9.6%.

B2: 171-bp pPID G-box mutant (CACGTG to TGATGA) (dsDNA)
DNA 1: GCACCCCTATAATATGCCTAGAGGAAATAAGAAGAAAAAATAATGGGGAAAAAGAGAAGCTACTGCTACACTTTCAGGTGATGAACAACGTCTCATGATGATCATATATCTTACGTCATCAAGTCCTCTTTTTCTCTCTTTCACTTTTCTGTTTACCTCTCTCACGCGTTG
DNA 2: CAACGCGTGAGAGAGGTAAACAGAAAAGTGAAAGAGAGAAAAAGAGGACTTGATGACGTAAGATATATGATCATCATGAGACGTTGTTCATCACCTGAAAGTGTAGCAGTAGCTTCTCTTTTTCCCCATTATTTTTTCTTCTTATTTCCTCTAGGCATATTATAGGGGTGC
B2: the binding result with 6xHis-SPT (SPATULA) is “no binding”.
